The values that follow are results of earlier work, collected in patent EP0759087B1, “COMPOSITIONS AND METHODS FOR TARGETING GENE DELIVERY VEHICLES” (CHIRON CORPORATION, priority 1994, dated 1995).

The data set has as its target receptor on melanocytes (Homo sapiens, UniProt Q01726). The settings on record: no source given, read-out: receptor affinity (KD).

Where no end group is shown, it is not given here.

Chain of receptor on melanocytes (Q01726 whole entry): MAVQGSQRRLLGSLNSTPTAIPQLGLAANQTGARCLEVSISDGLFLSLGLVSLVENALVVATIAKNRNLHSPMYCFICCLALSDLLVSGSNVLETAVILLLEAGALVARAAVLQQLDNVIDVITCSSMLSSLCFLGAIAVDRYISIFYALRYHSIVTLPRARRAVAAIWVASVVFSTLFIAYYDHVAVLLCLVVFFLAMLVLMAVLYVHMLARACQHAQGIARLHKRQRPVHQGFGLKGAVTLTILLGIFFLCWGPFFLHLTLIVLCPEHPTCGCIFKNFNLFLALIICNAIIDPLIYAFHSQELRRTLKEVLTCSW

Broadly, the Kd is the concentration at which binding is half-saturated. Take “S-Y-S-M-E-H-F-R-W-G-L-P-V-NH2 (SYSMEHFRWGLPV-NH2) [MSH, 13 amino acid peptide that is specifically recognized by a receptor on melanocytes]”: the Kd was ~10 nM.
